Measured values reported in patent US20050266528A1.

Target: von Willebrand factor (vWF) (UniProt P04275)
Test: affinity chromatography, peptide immobilised, linear 0-2 mol/l NaCl gradient, vWF antigen ELISA of fractions

Sequence of UniProt P04275 (P04275 764-2813): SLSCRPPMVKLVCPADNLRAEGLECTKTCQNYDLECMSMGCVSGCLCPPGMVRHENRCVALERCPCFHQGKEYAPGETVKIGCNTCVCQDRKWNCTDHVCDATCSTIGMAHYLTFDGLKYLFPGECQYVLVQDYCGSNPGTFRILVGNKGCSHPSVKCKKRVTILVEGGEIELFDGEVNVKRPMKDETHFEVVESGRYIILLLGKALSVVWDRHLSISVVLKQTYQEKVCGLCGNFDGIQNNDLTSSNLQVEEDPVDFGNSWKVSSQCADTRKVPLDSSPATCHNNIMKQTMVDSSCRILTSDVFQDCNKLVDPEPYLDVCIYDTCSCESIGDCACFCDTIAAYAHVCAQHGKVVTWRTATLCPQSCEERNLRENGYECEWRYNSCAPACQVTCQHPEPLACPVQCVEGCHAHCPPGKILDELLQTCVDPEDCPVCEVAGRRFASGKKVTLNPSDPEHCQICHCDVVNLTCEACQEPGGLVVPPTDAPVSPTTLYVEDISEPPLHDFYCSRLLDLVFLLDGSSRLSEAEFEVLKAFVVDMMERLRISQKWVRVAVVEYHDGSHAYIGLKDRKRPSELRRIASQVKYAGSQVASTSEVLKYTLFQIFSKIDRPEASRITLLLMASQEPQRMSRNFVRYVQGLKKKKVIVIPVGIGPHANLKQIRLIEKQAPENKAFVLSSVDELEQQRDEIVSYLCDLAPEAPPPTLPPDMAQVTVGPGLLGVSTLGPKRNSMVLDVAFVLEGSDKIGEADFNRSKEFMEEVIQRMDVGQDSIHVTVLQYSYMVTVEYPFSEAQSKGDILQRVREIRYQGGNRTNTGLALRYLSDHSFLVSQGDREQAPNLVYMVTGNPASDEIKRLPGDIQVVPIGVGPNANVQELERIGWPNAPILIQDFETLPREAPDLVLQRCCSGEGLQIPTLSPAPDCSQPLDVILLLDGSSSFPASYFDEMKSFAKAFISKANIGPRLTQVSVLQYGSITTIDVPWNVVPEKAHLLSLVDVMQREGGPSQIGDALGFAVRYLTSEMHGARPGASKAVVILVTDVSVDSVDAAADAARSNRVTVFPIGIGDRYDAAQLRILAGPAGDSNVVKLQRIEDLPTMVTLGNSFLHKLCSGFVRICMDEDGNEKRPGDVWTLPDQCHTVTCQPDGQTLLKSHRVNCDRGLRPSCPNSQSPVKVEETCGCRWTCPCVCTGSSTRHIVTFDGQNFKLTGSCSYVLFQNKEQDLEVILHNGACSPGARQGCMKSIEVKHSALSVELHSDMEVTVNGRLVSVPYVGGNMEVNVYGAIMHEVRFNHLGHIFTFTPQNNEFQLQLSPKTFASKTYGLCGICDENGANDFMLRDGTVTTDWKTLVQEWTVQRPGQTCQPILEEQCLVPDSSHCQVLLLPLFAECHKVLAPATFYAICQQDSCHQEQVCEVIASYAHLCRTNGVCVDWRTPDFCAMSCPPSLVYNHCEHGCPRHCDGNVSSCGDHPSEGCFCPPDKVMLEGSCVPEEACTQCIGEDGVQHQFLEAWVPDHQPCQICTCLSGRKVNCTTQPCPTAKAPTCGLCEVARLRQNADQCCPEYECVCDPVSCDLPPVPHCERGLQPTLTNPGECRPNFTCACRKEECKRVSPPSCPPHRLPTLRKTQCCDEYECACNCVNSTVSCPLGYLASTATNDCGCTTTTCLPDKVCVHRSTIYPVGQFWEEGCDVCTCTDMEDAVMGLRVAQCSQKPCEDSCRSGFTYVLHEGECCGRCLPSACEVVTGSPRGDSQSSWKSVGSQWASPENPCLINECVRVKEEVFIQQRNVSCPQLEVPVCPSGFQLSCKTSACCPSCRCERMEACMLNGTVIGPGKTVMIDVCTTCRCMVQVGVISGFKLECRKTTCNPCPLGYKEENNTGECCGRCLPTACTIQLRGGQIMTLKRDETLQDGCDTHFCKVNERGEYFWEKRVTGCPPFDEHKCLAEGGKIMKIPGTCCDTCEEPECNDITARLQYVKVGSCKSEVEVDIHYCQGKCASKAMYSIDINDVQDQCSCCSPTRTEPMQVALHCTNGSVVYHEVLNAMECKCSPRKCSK

A NaCl concentration at which vWF elutes from the peptide of 100 mmol/L was found for AAGGILHLELLV [peptide with the sequence …] in this work.
